Changes are numbered by the printed parent chain. In names and notes the source's numbering stands.
Substrate: Nc1ncnc2c1ncn2[C@@H]1O[C@H](COP(=O)(O)OP(=O)(O)OP(=O)(O)O)[C@@H](O)[C@H]1O
Assay: purified protein
Type: biochemical, Homo sapiens
Details: MgCl2 UBA3 nucleotide binding pocket

B1: UBA3 (NEDD8 activating enzyme, NAE) (Homo sapiens) (protein)
chain: ADGEEPEKKRRRIEELLAEKMAVDGGCGDTGDWEGRWNHVKKFLERSGPFTHPDFEPSTESLQFLLDTCKVLVIGAGGLGCELLKNLALSGFRQIHVIDMDTIDVSNLNRQFLFRPKDIGRPKAEVAAEFLNDRVPNCNVVPHFNKIQDFNDTFYRQFHIIVCGLDSIIARRWINGMLISLLNYEDGVLDPSSIVPLIDGGTEGFKGNARVILPGMTACIECTLELYPPQVNFPMCTIASMPRLPEHCIEYVRMLQWPKEQPFGEGVPLDGDDPEHIQWIFQKSLERASQYNIRGVTYRLTQGVVKRIIPAVASTNAVIAAVCATEVFKIATSAYIPLNNYLVFNDVDGLYTYTFEAERKENCPACSQLPQNIQFSPSAKLQEVLDYLTNSASLQMKSPAITATLEGKNRTLYLQSVTSIEERTRPNLSKTLKELGLVDGQELAVADVTTPQTVLFKLHFTS
Km: 243 µM

B2: UBA3 A171T (NEDD8 activating enzyme, NAE (UBA3 A171T)) (Homo sapiens; A171T) (protein)
chain: B1 chain with A170T
Km: 1006 µM

Reference: article PMC4120840
